{
  "source": "paper PMC4600075",
  "about": "“Rapid kit-based ^68Ga-labelling and PET imaging with THP-Tyr^3-octreotate: a preliminary comparison with DOTA-Tyr^3-octreotate” (EJNMMI Research, 2015)",
  "key": {"[1]": {"assay": "PET scanning, tumour to organ/background ratios", "conditions": "Balb/c nude, mouse, in vivo, iv, 1 ug, total radioactivity, PET images 1 h PI, ±SEM, n = 3", "description": "(§1) All animal experiments were performed with approval from the Peter MacCallum animal ethics committee. Six- to eight-week-old Balb/c nude mice (Animal Resources Centre, Western Australia) were implanted subcutaneously on the right flank with three million AR42J cells (sourced from ATCC). Once the tumours reached a volume >150 mm^3, the animals (n = 3) were injected intravenously with 23–28 MBq [^68Ga(THP-TATE)] (containing 1 μg of THP-TATE). For blocking studies, animals (n = 3) were coinjected with Tyr^3-octreotate peptide (400 μg). For [^68Ga(DOTATATE)], the animals (n = 3) were injected with 8 MBq of the tracer (containing 1 μg of DOTATATE). At 1 h, the animals were anaesthetised and imaged on a Philips MOSAIC small animal PET scanner. The images were reconstructed using a 3D RAMLA algorithm and tracer uptake determined as described previously. On completion of the scan, animals were euthanised and tissues harvested, weighed and radioactivity counted using a gamma counter (Biomedex). Quantitation of PET images was performed using in-house software (MARVn 3.31). Regions of interest were drawn around tissues of interest and uptake ratio calculated as the maximum pixel intensity in the tumour divided by the average uptake in a mediastinal background region, liver or kidneys, as appropriate."}, "[2]": {"assay": "Ex vivo biodistribution", "conditions": "Balb/c nude, mouse, in vivo, iv, 1 ug, total radioactivity, 1 h PI, ex vivo gamma counting, n = 3, ±SEM", "description": "as §1"}, "[3]": {"tested_on": "SSTR2-positive AR42J tumours", "assay": "Ex vivo biodistribution", "conditions": "1 h PI, i.v., ex vivo gamma counting; n = 3, ±SEM", "description": "as §1"}},
  "data": [
    {"smiles": "C[C@@H](O)[C@H](NC(=O)[C@@H]1CSSC[C@H](NC(=O)[C@@H](Cc2ccccc2)NC(=O)CN2CCN(CC(=O)O)CCN(CC(=O)O)CCN(CC(=O)O)CC2)C(=O)N[C@@H](Cc2ccc(O)cc2)C(=O)N[C@H](Cc2c[nH]c3ccccc23)C(=O)N[C@@H](CCCCN)C(=O)N[C@@H]([C@@H](C)O)C(=O)N1)C(=O)O", "note": "[[^68Ga(DOTATATE)], metal not drawn]", "values": [
      {"measurement": "tissue to tissue ratio at 1 h", "setting": "[1]; Tumour to kidney ratio, maximum tumour pixel intensity / average organ uptake", "value": "5.7 ± 0.2"},
      {"measurement": "tissue to tissue ratio at 1 h", "setting": "[1]; Tumour to liver ratio", "value": "27.2 ± 3.9"},
      {"measurement": "tissue uptake at 1 h", "setting": "[2]; AR42J tumour uptake", "value": "14.4 ± 0.8", "unit": "%ID/g"},
      {"measurement": "tissue uptake at 1 h", "setting": "[2]; kidney retention", "value": "5.6 ± 0.5", "unit": "%ID/g"},
      {"measurement": "blood retention", "setting": "[3]", "value": "0.3 ± 0.1", "unit": "%ID g^−1"}
    ]}
  ]
}
